In a protein production outcome set (Wang et al. 2014):

Test: label from the status in PepcDB records

Sequence | protein production
MITLAQAEVGKVYTVESVQADIQTKKHLNNLGVVAGQAVVLVNYQNQNGIVLLHNSRIALTDTILQAIHVEERSANEKVWVSLDTLKVGERATIVGIHGQGAVKRRLMDMGLTKGTVIFIRKVAPLADPIEINVRGYELTLRKSEAELILVEKEESELEHHHHHH | failed
MFFLRTTKRMESYSQNSNKLDFQHEARILNSIWLITALGLVATAGLAWGAKYLEITATKYDSPQMYVAIGLLLLSMYGLSKDINKINTAIAGVIYLFLISLVAIVVASLAPVSAIIVVFSTAGSMFLISMLAGLLFKFDPGSHRFIIMMTLTGLALVIIVNATLMSERPIWVISCLMIVLWSGIISHGRNKLLELTGKSHSEELWSSVRCAFIGALTLYYYFIGFFGILAAIAITLVWQRHTRFFH | failed
MPSRRRFVLALAAALPAAGLLSACGFHLRGNNDFAFKRLYINLPQNSQMRAQLRRLIDNGSDTVVVSDKQDADAFLDVLSENRVKTISSLTPQGVVREYRITYRFSFQLRDAHDNLLIPPSEITLFRDLSYNETQVLAKDYEEAALYRDMQGDIVNQLVRRLASVRLPSLEHHHHHH | failed
MRVISRRTSLILFSGLVFVLASMLLYLYLNSGSEQTQTYNESRDLIRQLKQQDAVWENEVLKARVAVSHNYDPLVIPLKEMKRLWARFDRREAEQGRDESDQWRDAHDGFLSAFGEKARLVEQFKSHNALLRNSLAFLPTAEDGIQAQINTMLAPNRQEVHVFVTDTYDLLLSALEFAQVTSVERAAEIEVGLGNLAVNTENLPKEFQTPLNLLSNHVALILREQPVVNRLLEQIEAIPVAERLDTITSLLDRDQQQVEKINRKNHLYTLWLSGLLMFSVICLAALLVRSFAEVRRVNNALQSANDVLEQRVEERTLALRNAQSELFNAARQAGMAEIATNVLHNVGNVLNSVNTSSDLIARTLRSSKTQGLGKAMQLFREHATDIGRFLDEDPRGRLLPGYLNQLTEAIADEQKEMAIELERMNKSIDHIKEVVATQQSYAGAKNVPEPLSVNDLVEDALRMNAGALTRHQVRVVRDFADLPLVMGDRHRLLLILINLISNAKYAMSGPGSDPRTMILRTRIVEGGLLEMSVLDEGEGIAPENLQKIFAHGFTTRKDGHGFGLHSCALAAIEMNGHLTAHSDGPGLGAVFTLRIPLIAVTEPA | failed
EDVEFVRLNVSDLLTDPELAQSIFSLLVSAHYQTSPNDWLALLSDPSLFCWAGIDKSSRNVLTCALVSLEGQLDNELIADIQVGKRRPRGHLVPVSLTQTLCINEPAQQSCIRIMRIAVEQHYQRMHLGSKFIEYIKAFYCDLGIDYLSTSFGSTPGLNEFWLSLDF | failed
SKVWKYFGFDTNAEGCILQWKKIYCRICMAQIAYSGNTSNLSYHLEKNHPEEFCEFVKSN | not failed
MIPSSSPMESRHRLSFSNEKTSRRRFQRIEKGVKFNTLKLVLICIMLGALFTIYRFRYPPLQIPEIPTSFGLTTDPRYVATAEINWNHMSNLVEKHVFGRSEYQGIGLINLNDNEIDRFKEVTKSDCDHVALHLDYAAKNITWESLYPEWIDEVEEFEVPTCPSLPLIQIPGKPRIDLVIAKLPCDKSGKWSRDVARLHLQLAAARVAASSKGLHNVHVILVSDCFPIPNLFTGQELVARQGNIWLYKPNLHQLRQKLQLPVGSCELSVPLQAKDNFYSAGAKKEAYATILHSAQFYVCGAIAAAQSIRMSGSTRDLVILVDETISEYHKSGLVAAGWKIQMFQRIRNPNAVPNAYNEWNYSKFRLWQLTEYSKIIFIDADMLILRNIDFLFEFPEISATGNNATLFNSGLMVVEPSNSTFQLLMDNINEVVSYNGGDQGYLNEIFTWWHRIPKHMNFLKHFWEGDEPEIKKMKTSLFGADPPILYVLHYLGYNKPWLCFRDYDCNWNVDIFQEFASDEAHKTWWRVHDAMPENLHKFCLLRSKQKAQLEWDRRQAEKGNYKDGHWKIKIKDKRLKTCFEDFCFWESMLWHWGETNSTNNSSTTTTSSPPHKTALPSL | failed
MIILSFYKLLERVICVHSITTYWWKYYLASFFSILVIGIVISSLNINIPYFFLIQIGLVFSLWYLISPIIMILVFKMRRAPQDVTFMVEDLSKKYNVKLSKVYIINDNFLNAFAFGNIIFRGIAVTSPLYESLVQEELAAVLSHEIAHIKNYDPEVMLLTIFSINSIYAALIYYLPLVSLFFLIIYFVILLPSVFYVHRKIEKRADLTAVKVNPDITYWLESSLIKIGYLSRSIPTNMLRYVPPIQIFLAKEFIVNHIVDEKSVLSFRTHPSLKERLLYLSQYEKQKMYYI | failed
MKIAALYDIHGNYPALKEVLKQVKKLSPDLVVLGGDLIAGPMPLETLSLLKHVSTTFKTVGIMGNNDQDIVDIYAKKRVGLSRKATEQLTWIANQLSYKQVSFLRNLLPSISIGNYFFCHAVKNDNTTVFSPQQNKAYIETLFKGVQESYIICGHTHIQFELSLPNKKIINAGSIGMPFSNQFGAQWLWLDDNRIEYKRTIFNQQAAIQLISQTEYPFKNEFLEHHHHHH | failed
MRGSVAALLLAAGRSIRMGRCKQLLPLGNTTVLGRCLDTLRRGGVGEIAVVVSADGEQVARAAAGHGVRVVVNPDREGDMASSVRAGRDAFGSAVGGVIVSLCDQPLVAAGTVARLRDRHATEPGRIIIPTHGGRRGHPLLFPLPVLAELEDGLTLRDLVVCDPARVCCVAVADPGILIDMDTPEDYRHVCRLMAPQEGLSLRLEHHHHHH | failed
MTSASAALPQQPGRTKAFLRLVMIEHSVFALPFAYIAALTAMFQWDRNIHWVRLLLVTVAMVGLRTFAMAANRIIDREIDARNPRTAHRELVTGAMSVRHAWTGALVALVFFLGAAALLNPLCLALAPIAVIPMVVYPYGKRFTNFPQAILGLAQAMGPVGGWLAISGEWSWDAVILGLAVGVWIGGFDLIYACQDVETDREVGVMSVPARFGIQAAIWGARVCHAITTALLVWYAFATDAGAFFWFGLVIVAGAFLYEHSIVKPHDLSRLNRAFFSTNGFIGISLFVCALGDLLVRGLTV | failed
PDAARKAQILWCQPDRAKAWTDWMRKGKFPVGGSICDNPVAETTSLGEQFGFNGTPTLVFPNGRSQSGYSPMPQLEEIIRKNQ | not failed
MYALVDAVSFYASAEKVFDPSIRNKPVVVLTNNDGCICAVCPIARRLGIPKFIPYFQVKSLLEKHGVVVRSSNYELYADLSERMMNVIGRFCDNQYIYSIDESFLYFDHYESCINDWHEYGHKIRKAIWKETRLPVGVGFGETATLSKAANHAAKKLSGFNGVAVINSAVSRDKILKRMAVDEVWGIGRKISKRLGLEGINNAAQLAEQDPKHIRKQFSVVTERTVNELNGISCLSWDEVKSPKKEIFSTRSFGQRITTKNELRSALVTHAAIVGRKVRRQNSLIKKLMIFASNSPHDDLYYKQSMVFPFIIATENTCEMARAVNQVIDSIYKAGIKFYRCGVGAIELNSKTFIQPDLFMPDHTNSNVMKCLDNVNHRYGDSTLKLAAEGHHEKWQMRRAFLSPQYTSQWRDIPKIQC | failed
MKNDRKARLILSIFRYGKNHMEKETFYHKVNYGIYKILNAVFVIGFFGTELQASQSISNNIILFHPYGIVVSGEATLGDEVVIRQQVTIGNKGTGEGADDCPIIGDRVDIGAGAKIIGGITIGENSKIGANAVVTKSFPANSILVGVPARNIASKAMNGLEHHHHHH | not failed
MVLPSGLALPPLEYTVALLAGTLVVTALLYALEPPINQRTVVALTPWMALGGALHAFHQPPIEAYRPVVTPLFGAPAVYLTTFVTLGVVWVTLTLFSVRRGHSETISRNLGYIGIGLLTVLLVIAVVMALESGLLGLIWPTIAVIVATVVTAVTVLAVALWRTPVVVRMRYAAPTVVFAHMLDGVSTAVGADVIGITERTPIPARIMEFAGTLPTAPYLGKGWLFVFVKLLVAIGVVFLLDDYLEEDPVEASLLLAVVTAVGIGPATNNIVLFLFSPV | failed
MKTWFKYIKLLLLSVCTFLLVTGCNSNVSKLPSNQTTSNITTNCRVINHEAGKTQICGQPKKVVALSPPVLDMMLALGVQPAGYAEVDLLNSKVFDRPKEQIPYLGDRITSQPMNVGDRGNPSLESLLQLKPDLILGEASYNETEYQILNKIAPTILISHRDGITPAWQQTISIIAQALGREDKVPTVIAEYEQKLSQAKTAIAPIAQHQELLLLAFRGITLTSFTFGAETFAGGLLQDLGFKLVSPESTEYEVALEVLPKFKSDLIVIMPSGNNNIENAKRQWSQNPILQSISAHNTNRIYFIDYQLASRIRGPIAAELFVNQVRQLLS | failed
MAIKLSSIDQFEQVIEENKYVFVLKHSETCPISANAYDQFNKFLYERDMDGYYLIVQQERDLSDYIAKKTNVKHESPQAFYFVNGEMVWNRDHGDINVSSLAQAEE | not failed
MGIPEEIPPVFKTAVDVLRGASFGVADASILGYPATSMTLNQQVDNFRSMKSNWIDDFIGRSLFMIYIGTEDKLNFTKNKPNAASICHFRY | failed
MTALLTRVWACTLCQAELPFPPKPILQASSQARILIAGQAPGVKTHHKGIPFDDASGERLRAWLNVSREQFYDPALFAIVPMGFCFPGNIERKGKKQGDKPPRPECAATWHKALLALMPNIELVIVLGQYAMDYHLSRLLMDNMHKNRGFNSTPLAAAHTIGKATSNKKITLTQAVEQWPLYWPQLMVMPHPSPRNNLWLKQHPEFEQHLIPTLRSRISSLLT | failed
MQGAGRLMQPRPDSAFVHDVRVTWGDCDPAKIAYTGHLPRFALEAIDAWWSEYHGPGGWYHLELDTNVGTPFVRLEMDFKSPVTPRHILKCHTWPTRLGTKSITFRVDGVQDGVTCFVGAFTCVFTIADQFKSQPAPDHLRALIEPHIPA | not failed
MDKNNLEDLTGKKILRNGFGGLRLEYGTIFLDVGLFTYIVLILSIFFFLVERWFLGALTFVLHVPLLLLGIWCGER | failed
MKLKWWQRLLPRSAFSQTVLLIGCLLLINQLVSYVTVAVYVLKPSYQQINQLIARQINLLFVDGIDIGREHLTIVDALNAKVRDDGMKVYNQQQAREAGIEQATYYGFWSSQMTEYLGGDAEVRVTHGRVLQVWIRPPQAPSVWIKVPLIGQNVSDLSPLTLYLMVIGALSVAGGWWFARQQNRPLRRLQKAAISVSRGEFPDPLPLKGSSELVEVTNAFNQMAHSMKQLEQDRALLMAGISHDLRTPLTRIRLASEMMVEDDQYLKDGIVNDIEDMDAIISQFIAYIRQDQEASREPGQINKLIQDIAQAEANRDGEIELALADCPEALFQGLAIKRVLSNLVENAFRYGSGWVRISSQFDGKRIGFSVEDNGPGIDESQIPTLFQPFTQGDIARGSVGSGLGLAIIKRIIDRHQGQITLSNRAAGGLKAQVWLPRE | failed
MRYAVVLYPCSSFHHESVRPSRFPAPRRHPLLHRLPLAVARRLAGPGTADHFRERAGRGGAASRQRRRVPRRGRRRAAVGPQGGRRLSRAENPQAAAARPHRAGQGAGAQRPSLSAAMNAPQRKIIHVDCDCFYAAIEMRDDPSLRDVPLAVGGRPETRGVVATCNYIARRYGVHSAMSSARALRLCPELLIVPPDMARYRLASQQIMAIYQRYTEVIEPLSLDEAYLDVTGQPHERGSATLMAEAIRRQIRDEVGITASAGIAPNKFLAKVASDWNKPDGQYLIRPRDIDAFVAVLPVEKIHGVGRVTAERLHRLGIRSCGDLRRWSPADLFRHFGSFGERLLALAHGRDERPVSTDRSRKTISVEETYAQDLPDLASCLSKLPELVDRLQARLARSGSPAFKGLSVKLKFDDFSQTTVEQPGYALSMAAFGQLLRAGHARGARPARLLGVGVKLADDFDLPRQLRLFGRDGRPLPDSAPPAEAPPGGPEADSAA | failed
